Source: patent US20090280480A1

What was measured:
[1] = target: T1, NM, the N-terminal and middle region of Saccharomyces cerevisiae Sup35 (soluble, unpolymerized) (Saccharomyces cerevisiae), P05453; experiment: Microcon YM-100 (100 kDa cut off) filtration of fibrillization reactions; details: remark: other sources report otherwise
T1 chain: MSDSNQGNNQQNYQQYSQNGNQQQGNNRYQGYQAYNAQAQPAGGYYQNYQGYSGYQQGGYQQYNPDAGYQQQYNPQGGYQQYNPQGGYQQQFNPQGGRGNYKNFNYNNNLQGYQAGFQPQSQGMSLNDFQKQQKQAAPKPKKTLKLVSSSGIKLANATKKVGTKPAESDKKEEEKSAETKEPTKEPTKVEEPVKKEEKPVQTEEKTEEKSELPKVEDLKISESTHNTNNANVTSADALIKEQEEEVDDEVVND

[2] = target: T1, NM, the N-terminal and middle region of …; experiment: quaternary structure analysis of soluble NM; method not named; details: remark: other sources report otherwise

B1: NM, the N-terminal and middle region of Saccharomyces cerevisiae Sup35 (soluble, unpolymerized), P05453 1-253 (protein)
chain: T1 chain
With B1 the percent of total NM in an oligomeric state [1] was 10% and the percent monomeric after dilution out of denaturant [2] was 87%.
